# Laboratory results as given in PMC10531801.
# System: Gp49 (Bacillus phage SPO1)
# Test: SPR
# Details: EMSA: 20 mM Tris, 50 mM NaCl, pH 7.5, 30 min at 4 C, 2% agarose in 0.5x TBE; SPR: Biacore T100, CM5, 25 C, buffer not stated
sequence,measurement,value
AUGAAUAGUUAAACAACGUGG [ssRNA],Kd,1860 nM
